Test results published in US20250242012A1.

Biological target: soluble HRP-conjugated spike-RBD construct (HRP-RBD) of the SARS-CoV-2 neutralizing antibody ELISA a (SARS-CoV-2) (UniProt P0DTC2)

Substance: positive control reagent of the SARS-CoV-2 neutralizing antibody ELISA assay kit (Creative Diagnostics)
- percent inhibition: 82.5%
